# Source: the supplement of paper PMC6755084
# B1: F1*; the commonest letter at each place (parent)
# chain: GAGACCGCAACTGAAAAGTTGTTATCACTTGTCGTAAGACACTTTGGATGGGTTGAAGTTCTGCACGTAGAAGCAAAAGGC
# Variants of: B1
# Test: fraction ligated after 30 min (ligated reads / total reads); higher = more ligase activity
# Settings: with F1*sub RNA substrate (template-directed ligation), 42 °C
# Method in brief: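 Ligase ribozyme variants were made from oligo-pool templates by PCR amplification, T7 transcription and gel purification. After gel separation, ligated and unligated bands were reverse transcribed with barcoded primers and sequenced on a MiSeq, with core bases filtered at quality ≥20. The fraction ligated for each variant was the number of ligated reads divided by total reads.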
row,Variant,fraction ligated
1,A27C T29C,0.802
2,A24C G50A,0.431
3,A27T G55A,0.812
4,T44C G46A,0.778
5,C42T A57C,0.812
6,T23A A37T,0.811
7,T23A A37C,0.82
8,T23G T35A,0.834
9,A39C G50T,0.503
10,A36C T43C,0.806
11,A48T G50A,0.158
12,A24C G31A,0.0336
13,C42A T44A,0.855
14,G31A T44A,0.818
15,G34T A37G,0.829
16,T25C T49A,0.777
17,G47T A57T,0.0782
18,T25G C28T,0.675
19,T29G A48C,0.756
20,A41T A57G,0.807
21,T30A A37T,0.832
22,A41G T45C,0.541
23,T44G T45C,0.797
24,T45A G46T,0.403

row,Variant,fraction ligated
1,C26A G46C,0.744
2,A24G C28G,0.701
3,T25A C28A,0.396
4,C28A T49A,0.679
5,A37G G47A,0.831
6,G31C G47C,0.0426
7,T45C G50A,0.0234
8,G31A C40A,0.839
9,C26G T45G,0.0236
10,A27G A57T,0.81
11,A41T C42T,0.848
12,G47A A48G,0.61
13,C26G A39T,0.493
14,T35G A56T,0.802
15,T49G A57C,0.523
16,T49G A57G,0.734
17,T30C G47C,0.0928
18,C33G T45A,0.689
19,T25A C26A,0.0968
20,T25A C26G,0.0644
21,T35A T43A,0.84
22,T25A T43G,0.624
23,A24G C42G,0.795
24,A27C G31A,0.824

row,Variant,fraction ligated
1,T35C A37G,0.881
2,A27G T44G,0.813
3,T29C A36C,0.821
4,C28A C40A,0.809
5,C33A G38A,0.857
6,T32C C40G,0.743
7,A36G G46A,0.836
8,T23G G46A,0.809
9,C28T A56C,0.595
10,C28G G38A,0.792
11,C26A G47C,0.0466
12,T30A T32A,0.843
13,C28T A41C,0.792
14,A24T A57T,0.503
15,T44G A57C,0.816
16,T25G A27C,0.705
17,A36G A48T,0.0834
18,T49A A56G,0.116
19,G31A A48C,0.322
20,C28T A39T,0.796
21,G34C A57G,0.854
22,T23C A39T,0.803
23,A27T T49A,0.76
24,A27T T49G,0.287

row,Variant,fraction ligated
1,T25A T29G,0.691
2,T30C A48G,0.329
3,T25A A27T,0.371
4,T35G G50A,0.659
5,T32G G46A,0.782
6,T23G C40A,0.873
7,G46T G47A,0.769
8,G46T G47C,0.0107
9,A56T A57G,0.217
10,A39G C40G,0.802
11,G34C A37C,0.806
12,T30C A37G,0.83
13,C28A G34A,0.812
14,T25A A37C,0.744
15,A39G G46C,0.781
16,C26G T29A,0.789
17,C28G T43G,0.794
18,C42A T49C,0.727
19,A24G T43C,0.694
20,A27C T32A,0.799
21,C42A G50A,0.345
22,T35C G46T,0.778
23,C40T T44G,0.825
24,A27C A41C,0.782

row,Variant,fraction ligated
1,C33T A37C,0.868
2,A41G G46T,0.767
3,T30C,0.807
4,C28A A36T,0.811
5,A36C G50C,0.454
6,T30C C33A,0.824
7,A24G C33G,0.785
8,G34C A56T,0.812
9,C26A G34T,0.808
10,A48C A57G,0.762
11,T30A T43G,0.8
12,C28G C40T,0.806
13,T43C T45G,0.257
14,A37T G55C,0.8
15,A24T C33T,0.742
16,G38T G55A,0.823
17,G34A G47T,0.373
18,T35A G38C,0.855
19,T23C G47A,0.806
20,G31A G47C,0.0647
21,T30G G46A,0.791
22,A37T C42A,0.85
23,G47C T49G,0.0669
24,A27C A57G,0.773

row,Variant,fraction ligated
1,T29G G46T,0.805
2,T30C A41C,0.752
3,T32C G47T,0.103
4,A41C C42A,0.844
5,T44C G50T,0.691
6,T44C G50A,0.406
7,A39T T49G,0.769
8,A48T A56C,0.0454
9,T45A A48T,0.0749
10,C26A A48T,0.00798
11,A36C A37G,0.825
12,A41C G46T,0.676
13,T30G T32C C33G G38C A39G A41C,0.835
14,T45G A48C,0.122
15,T35G G46C,0.803
16,T35G G46A,0.809
17,A24C C26G,0.419
18,A24C C26T,0.0218
19,T44C T49A,0.737
20,A36T G47A,0.8
21,A37C A48G,0.795
22,T35C A57T,0.825
23,T29G T43A,0.826
24,T25C A39C,0.741

row,Variant,fraction ligated
1,T35A A36C,0.865
2,A24T A37T,0.786
3,T43G G55A,0.801
4,T35A G50A,0.638
5,T43C A56G,0.757
6,T35A T45A,0.797
7,G34T G55T,0.81
8,T43C G50C,0.111
9,T43C G50A,0.187
10,C33T G47A,0.836
11,C26A T32G,0.499
12,T25C A27C,0.744
13,G38C G47A,0.306
14,T23G C28G,0.791
15,T23G C28T,0.782
16,G38C G50T,0.314
17,G31C C33G,0.794
18,A36T G38T,0.834
19,A27C T49C,0.519
20,T44A G50T,0.758
21,A41T G55T,0.81
22,A36T C40A,0.823
23,T29A T30C,0.856
